Test results published in article PMC4167974.

Target: fluorescein-labeled BalhA1 leader peptide (Bacillus sp. Al Hakam)
Experiment: fluorescence polarisation

MBP-BalhC (natural protein) showed a Kd of 11 µM.
